The record followed here is patent US20190031781A1.

Experiment [1] concerns the target carboxymethyl lysine conjugated to keyhole limpet hemocyanin (CML-KLH). Description: direct binding ELISA, CML-KLH coat 1 ug/mL, antibody at 5.56 ug/mL. A general note: In an ELISA, binding on a coated surface is turned into a signal by an enzyme label.
Experiment [2] has the same target. Briefly: direct binding ELISA, CML-KLH coat 1 ug/mL, antibody at 16.67 ug/mL.
Experiment [3] has the same target. Briefly: direct binding ELISA, CML-KLH coat 1 ug/mL, antibody at 50 ug/mL.
Experiment [4] has the same target. Description: direct binding ELISA, CML-KLH coat 1 ug/mL, antibody at 0.62 ug/mL.
Experiment [5] has the same target. Briefly: direct binding ELISA, CML-KLH coat 1 ug/mL, antibody at 1.85 ug/mL.
For experiment [6] the target is unchanged. Description: direct binding ELISA, CML-KLH coat 1 ug/mL, antibody at 0.07 ug/mL.
For experiment [7] the target is unchanged. Briefly: direct binding ELISA, CML-KLH coat 1 ug/mL, antibody at 0.21 ug/mL.

“carboxymethyl lysine MAb (Clone 318003), R&D Systems, catalog no. MAB3247 (antibody)”: the OD450 was found to be 0.165 in experiment [1]; 0.312 in experiment [2]; 0.462 in experiment [3]; 0.083 in experiment [4]; 0.092 in experiment [5]; 0.086 in experiment [6]. Further, in experiment [7], the OD450 was determined as 0.075.
